Results from paper PMC2805098.
Substitutions are numbered along the chain they refer to. In names and notes the source's numbering stands.

B1: Phe223Leu MTHFR (Escherichia coli K-12; F223L) (protein)
chain: MSFFHASQRDALNQSLAEVQGQINVSFEFFPPRTSEMEQTLWNSIDRLSSLKPKFVSVTYGANSGERDRTHSIIKGIKDRTGLEAAPHLTCIDATPDELRTIARDYWNNGIRHIVALRGDLPPGSGKPEMYASDLVTLLKEVADFDISVAAYPEVHPEAKSAQADLLNLKRKVDAGANRAITQFFFDVESYLRFRDRCVSAGIDVEIIPGILPVSNFKQAKKLADMTNVRIPAWMAQMFDGLDDDAETRKLVGANIAMDMVKILSREGVKDFHFYTLNRAEMSYAICHTLGVRPGL
B2: Phe223Ala MTHFR (Escherichia coli K-12; F223A) (protein)
chain: B1 chain with L223A

Experiments:
[1] = substrate: Nc1nc2c(c(=O)[nH]1)N1CN(c3ccc(C(=O)N[C@@H](CCC(=O)O)C(=O)O)cc3)C[C@H]1CN2; assay: NADH-CH2-H4folate oxidoreductase assay, steady-state; format: biochemical, Escherichia coli; conditions: other: 1000 μM NADH, fit to eq 6, anaerobic, 25 °C, pH 7.2
[2] = substrate: Nc1nc2c(c(=O)[nH]1)N1CN(c3ccc(C(=O)N[C@@H](CCC(=O)O)C(=O)O)cc3)C[C@H]1CN2; assay: purified protein, by the assay type; conditions: other: 500 μM NADH, anaerobic, 25 °C, pH 7.2

Protein | Km [1] [µM] | Km [2] [µM]
B1 | 8 ± 2 | 
B2 |  | 93 ± 16
